Experimental data published in publication doi:10.1101/2024.07.12.603331 (bioRxiv, 2024).

Target: neonatal Fc receptor (FcRn), recombinant ectodomains (UniProt P55899;P61769)
Assay: BLI

Sequence of neonatal Fc receptor (FcRn), recombinant ectodomains (P55899 24-297, chain 1 of 2): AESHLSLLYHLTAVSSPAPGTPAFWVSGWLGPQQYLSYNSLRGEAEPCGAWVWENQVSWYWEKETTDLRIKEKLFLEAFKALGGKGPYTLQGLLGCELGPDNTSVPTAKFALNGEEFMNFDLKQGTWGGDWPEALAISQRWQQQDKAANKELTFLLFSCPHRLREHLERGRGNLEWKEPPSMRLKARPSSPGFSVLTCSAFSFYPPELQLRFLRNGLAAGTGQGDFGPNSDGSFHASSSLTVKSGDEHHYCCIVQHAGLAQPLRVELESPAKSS
Sequence of neonatal Fc receptor (FcRn), recombinant ectodomains (P61769 21-119, chain 2 of 2): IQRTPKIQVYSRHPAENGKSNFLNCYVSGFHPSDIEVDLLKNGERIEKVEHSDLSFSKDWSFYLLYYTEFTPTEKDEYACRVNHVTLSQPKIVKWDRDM

B1: HAstV1 spike protein VP25 (residues S424 to R648) (domain or fragment)
chain: SIPAPGEEFKVVLTFGAPMSPNANNKQTWVNKPLDAPSGHYNVKIAKDVDHYLTMQGFTSIASVDWYTIDFQPSEAPAPIQGLQVLVNSSKKADVYAIKQFVTAQTNNKHQVTSLFLVKVTTGFQVNNYLSYFYRASATGDATTNLLVRGDTYTAGISFTQGGWYLLTNTSIVDGAMPPGWVWNNVELKTNTAYHMDKGLVHLIMPLPESTQMCYEMLTSIPRSR
modifications: biotin (EZ-link NHS-PEG4-Biotin)
  Kd: 578 nM
